Results taken from patent US20160209426A1 (Genentech, published 2016).

Molecular target: T1, integrin alphaEbeta7 (human, UniProt P38570 19-1179; P26010 20-798)
T1 construct: whole, on cells; In the occupancy experiments it stood on T lymphocytes from patients' colonic biopsies; also called αEβ7; αEβ7 receptor
Experiment: flow cytometry on CD45+CD3+CD4- T lymphocytes from a pre-dose colonic biopsy
Method: Etrolizumab binds the β7 subunits of the heterodimeric integrins α4β7 and αEβ7. While α4β7 is expressed on leukocyte subsets in both blood and mucosal tissue, αEβ7 is primarily confined to intraepithelial lymphocytes and dendritic cells in mucosal tissue. Therefore, to evaluate the pharmacology and mechanism of action of etrolizumab at the site of action as well as in circulation, colonic tissue was assessed in addition to peripheral blood. Colonic tissue biopsies were collected using standard surgical procedures from 23 consented, study-enrolled patients at pre-dose (screen) and at certain post dose time points (day 43 and day 71). […]
Similar to the flow cytometry assay conducted on peripheral blood cells, occupancy of β7 integrin receptors on colonic tissue T lymphocyte subsets was assessed by staining with fluorescently labeled (PE label) FIB504, while expression of β7 integrin receptors was evaluated using fluorescently labeled 9D8 (PE label). […] Samples were then acquired on a BD FACS Cantoll™ or a BD FACSCalibur™ (BD Biosciences, San Jose, Calif. USA) and analyzed by gating on subsets of αEβ7-expressing and α4β7-expressing CD3+CD45+, αEβ7-expressing and α4β7-expressing CD3+CD4+CD45+, and αEβ7-expressing and α4β7-expressing CD3+CD4-CD45+ T cell subsets. […]

T1 sequence (P38570 19-1179, chain 1 of 2): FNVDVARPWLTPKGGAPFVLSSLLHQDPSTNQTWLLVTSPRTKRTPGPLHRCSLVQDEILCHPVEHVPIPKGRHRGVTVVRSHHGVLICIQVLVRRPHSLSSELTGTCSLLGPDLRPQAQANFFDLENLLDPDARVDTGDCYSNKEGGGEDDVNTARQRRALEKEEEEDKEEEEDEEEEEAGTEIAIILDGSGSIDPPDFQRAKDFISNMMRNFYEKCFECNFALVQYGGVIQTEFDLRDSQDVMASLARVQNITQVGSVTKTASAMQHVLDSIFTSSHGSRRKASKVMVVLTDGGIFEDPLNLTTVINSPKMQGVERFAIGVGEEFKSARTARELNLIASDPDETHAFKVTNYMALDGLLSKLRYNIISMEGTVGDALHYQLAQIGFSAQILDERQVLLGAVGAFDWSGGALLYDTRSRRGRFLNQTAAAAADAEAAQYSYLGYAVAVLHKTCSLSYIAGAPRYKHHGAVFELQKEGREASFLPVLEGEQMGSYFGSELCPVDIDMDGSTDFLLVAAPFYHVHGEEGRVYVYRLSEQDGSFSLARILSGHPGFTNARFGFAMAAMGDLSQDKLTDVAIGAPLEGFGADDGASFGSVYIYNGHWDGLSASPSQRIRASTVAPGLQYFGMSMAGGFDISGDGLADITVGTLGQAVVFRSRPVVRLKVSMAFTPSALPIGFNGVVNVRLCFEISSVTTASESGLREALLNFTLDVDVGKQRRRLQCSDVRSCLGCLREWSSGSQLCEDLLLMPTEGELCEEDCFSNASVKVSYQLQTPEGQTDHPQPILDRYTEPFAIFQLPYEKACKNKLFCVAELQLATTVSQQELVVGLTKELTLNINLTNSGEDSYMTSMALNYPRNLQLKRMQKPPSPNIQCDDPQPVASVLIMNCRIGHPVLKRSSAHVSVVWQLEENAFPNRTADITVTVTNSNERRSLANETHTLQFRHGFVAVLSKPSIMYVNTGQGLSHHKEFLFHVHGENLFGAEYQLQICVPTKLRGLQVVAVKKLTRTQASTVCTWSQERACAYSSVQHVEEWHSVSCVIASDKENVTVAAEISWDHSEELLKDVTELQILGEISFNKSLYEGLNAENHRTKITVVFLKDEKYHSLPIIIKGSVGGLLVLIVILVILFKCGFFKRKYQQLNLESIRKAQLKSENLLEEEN
T1 sequence (P26010 20-798, chain 2 of 2): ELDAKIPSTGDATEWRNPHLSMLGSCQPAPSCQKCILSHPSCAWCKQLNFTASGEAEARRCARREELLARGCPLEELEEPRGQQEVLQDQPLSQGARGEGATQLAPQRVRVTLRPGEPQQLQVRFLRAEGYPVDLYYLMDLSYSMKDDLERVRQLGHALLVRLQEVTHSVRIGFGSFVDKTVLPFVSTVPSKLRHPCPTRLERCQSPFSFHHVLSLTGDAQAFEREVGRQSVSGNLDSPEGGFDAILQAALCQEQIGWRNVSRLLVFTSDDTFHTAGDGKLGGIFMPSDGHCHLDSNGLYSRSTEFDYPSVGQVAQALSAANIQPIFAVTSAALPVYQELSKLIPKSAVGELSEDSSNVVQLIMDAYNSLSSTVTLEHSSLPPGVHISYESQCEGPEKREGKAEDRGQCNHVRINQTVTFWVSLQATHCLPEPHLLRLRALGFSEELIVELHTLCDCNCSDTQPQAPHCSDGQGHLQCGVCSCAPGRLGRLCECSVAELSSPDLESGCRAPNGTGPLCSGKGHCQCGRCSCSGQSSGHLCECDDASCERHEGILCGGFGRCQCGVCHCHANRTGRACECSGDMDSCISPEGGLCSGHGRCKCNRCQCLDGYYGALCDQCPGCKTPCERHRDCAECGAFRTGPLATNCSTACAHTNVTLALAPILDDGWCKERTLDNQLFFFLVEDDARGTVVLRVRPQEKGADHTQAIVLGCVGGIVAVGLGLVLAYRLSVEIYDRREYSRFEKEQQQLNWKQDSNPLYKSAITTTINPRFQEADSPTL

B1: FIB504 (rat anti-mouse/human beta7 monoclonal antibody), fluorescently labeled (antibody, V domains shown)
VH: EVQLQESGPGLVKPSQSLSLTCSVTGFFITNNYWGWIRKFPGNKMEWMGYISYSGSTSYNPSLKSRISITRDTSKNQFFLQLNSVTTEDTATYYCAMTGSSGYFDFWGPGTMVTVSS
VL: DVVMTQSPATLSVTPGERISLSCRASESVDTYLHWYQQKPNESPRLLIKYASQSISGIPSRFSGSGSGTDFTLSINGVELEDLSIYYCQQGNSLPNTFGAGTKLELKR
notes: Bought reagent (BD Biosciences), fluorescently labeled (PE label for colonic tissue)
B1: binds.
